# According to patent EP2852397B1:
# How the values were obtained:
# human Nav1.2 (human) = human Nav1.2 (human) (UniProt Q99250); assay: cell-based or functional assay
# human Nav1.7 (human) = human Nav1.7 (human) (UniProt Q15858); assay: cell-based or functional assay
substance,measurement,setting,value
recombinant Huwentoxin-IV (peptide),"IC50, veratridine-induced depolarization inhibition assay",human Nav1.2 (human),342 nM
same,"IC50, veratridine-induced depolarization inhibition assay",human Nav1.7 (human),159 nM
same,"IC50, veratridine-induced depolarization inhibition assay (FRET, FLIPR Tetra)",human Nav1.7 (human),160 nM
same,ratio of IC50 for Nav1.2 to IC50 for Nav1.7,human Nav1.7 (human),2.14
